The values below come from US7205275 (dated 2007).

The assay addresses Negative Control Peptibody 4883. In words: ELISA. For orientation: ELISA stands for enzyme-linked immunosorbent assay.

B1: human Ang-2 (protein)
chain: YNNFRKSMDSIGKKQYQVQHGSCSYTFLLPEMDNCRSSSSPYVSNAVQRDAPLEYDDSVQRLQVLENIMENNTQWLMKLENYIQDNMKKEMVEIQQNAVQNQTAVMIEIGTNLLNQTAEQTRKLTDVEAQVLNQTTRLELQLLEHSLSTNKLEKQILDQTSEINKLQDKNSFLEKKVLAMEDKHIIQLQSIKEEKDQLQVLVSKQNSIIEELEKKIVTATVNNSVLQKQQHDLMETVNNLLTMMSTSNSAKDPTVAKEEQISFRDCAEVFKSGHTTNGIYTLTFPNSTEEIKAYCDMEAGGGGWTIIQRREDGSVDFQRTWKEYKVGFGNPSGEYWLGNEFVSQLTNQQRYVLKIHLKDWEGNEAYSLYEHFYLSSEELNYRIHLKGLTGTAGKISSISQPGNDFSTKDGDNDKCICKCSQMLTGGWWFDACGPSNLNGMYYPQRQNTNKFNGIKWYYWKGSGYSLKATTMMIRPADF
As to B1, the binding result was “no binding”.
